Results taken from patent US20110165063A1 (published 2011).

T1: recombinant human IL-1α (human, UniProt P01583 113-271)
T1 sequence: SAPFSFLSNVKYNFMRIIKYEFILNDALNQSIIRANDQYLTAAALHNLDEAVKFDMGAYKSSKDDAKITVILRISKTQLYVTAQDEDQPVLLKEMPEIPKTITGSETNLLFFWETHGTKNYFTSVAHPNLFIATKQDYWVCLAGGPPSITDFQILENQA

T2: cynomolgus IL-1α (cynomolgus, UniProt P79340 113-271, limits assumed)
T2 sequence (looked up): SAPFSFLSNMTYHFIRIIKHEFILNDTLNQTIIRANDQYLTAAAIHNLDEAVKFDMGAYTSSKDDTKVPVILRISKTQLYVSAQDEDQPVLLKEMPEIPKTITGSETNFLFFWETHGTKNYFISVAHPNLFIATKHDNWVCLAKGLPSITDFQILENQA


What was measured:
recombinant human IL-1α [1] = target: T1, recombinant human IL-1α; experiment: cell-based or functional assay
cynomolgus IL-1α [2] = target: T2, cynomolgus IL-1α; experiment: cell-based or functional assay
recombinant human IL-1α [3] = target: T1, recombinant human IL-1α; experiment: SPR (BIACORE), antibody captured, IL-1α in solution
cynomolgus IL-1α [4] = target: T2, cynomolgus IL-1α; experiment: as above
recombinant human IL-1α [5] = target: T1, recombinant human IL-1α; experiment: ELISA, antibody captured by anti-human Fc, biotinylated human IL-1α titrated
Method: To determine if anti-IL-1α antibodies bind to human IL-1α, ELISA plates (Nunc, MaxiSorp, Rochester, N.Y.) were incubated overnight at 4° C. with anti-human Fc antibody diluted in Pierce Coat buffer at 2 μg/ml (Jackson Immunoresearch, West Grove, Pa.). Plates were washed five times in washing buffer (PBS containing 0.05% Tween 20), and blocked for 1 hour at 25° C. with 200 μl per well superblock blocking buffer (Thermo scientific, #37515). Blocking buffer was removed by tapping plates, and […] of each antibody in PBS containing 10% superblock and 0.5% Tween-20 was added to the wells at 100 μl per well and incubated at 25° C. for 1 hour. The wells were washed five times in 1× PBST, and 1 mg/ml biotinylated antigen was titrated at 1:6 serial dilutions (for a range of mg to pg in PBS containing 10% superblock, 0.05% Tween 20). Each dilution of antigen was then added to the plates and incubated for 1 hour at 25° C. The wells were washed five times in 1× PBST and incubated for 1 hour at 25° C. with polyHRP streptavidin (KPL #474-3000, Gaithersburg, Md.). The wells were washed five times in 1× PBST, and 100 μl of ULTRA-TMB ELISA (Pierce, Rockford, Ill.) were added per well. Following color development, the reaction was stopped with 1N HCL and absorbance at 450 nm was measured. The half-maximal effective concentration (EC₅₀) values are shown in Table 9, and the numerical value indicates binding of anti-IL-1α antibodies to human IL-1α.

Binder | IC50 for Antibody (PM), MRC-5 bioassay (IL-1α-stimulated production of IL-8) (recombinant human IL-1α [1]) [nM] | IC50 for Antibody (PM), MRC-5 bioassay (IL-1α-stimulated production of IL-8) (cynomolgus IL-1α [2]) [nM] | Kd (recombinant human IL-1α [3]) [nM] | koff (recombinant human IL-1α [3]) [s⁻¹] | kon (recombinant human IL-1α [3]) [M⁻¹ s⁻¹] | Kd (cynomolgus IL-1α [4]) [nM] | koff (cynomolgus IL-1α [4]) [s⁻¹] | kon (cynomolgus IL-1α [4]) [M⁻¹ s⁻¹] | EC50 (recombinant human IL-1α [5]) [nM]
h3D12.r16 (antibody, V domains shown) VH: EVQLVQSGAEVKKPGASVKVSCKASGYTFKYYGMNWVRQAPGQGLERMGWINTYTGQSTYADDFKGRVTFTLDTSTSTAYMELSSLRSEDTAVYYCARDIYYYGSDFAMDYWGQGTTVTVSS VL: DIQMTQSPSSLSASVGDRVTITCRASQDISNMLNWYQQKPGKAPKLLIYYTSRLKPGVPSRFSGSGSGTDYTFTISSLQPEDIATYFCQQGKTAPYTFGQGTKLEIK | 0.0006 | 0.0008 | 0.0308 | 2.77e-05 | 900000 | 0.0149 | 1.33e-05 | 901000 | 0.072
h3D12.8 (antibody, V domains shown, also called humanized 3D12 antibody h3D12.8; VH H3D12VH.1A / VL H3D12VK.1C) VH: EIQLVQSGSELKKPGASVKVSCKASGYTFTNYGMNWVRQAPGQDLERMAWINTYTGESTYADDFKGRFVFSLDTSVSTAYLQISSLKAEDTAVYFCARGIYYYGSSYAMDYWGQGTTVTVSS VL: DIQMTQSPSSLSASVGDRVTITCRASQDISNCLNWYQQKPGKTPKLLIYYTSRLHSGVPSRFSGSGSGTDYTFTISSLQPEDIATYFCQQGKTLPYAFGQGTKLEIK | 1.95 | – | 1.35 | 0.00274 | 2.04e+06 | – | – | – | 0.028
h3D12.16 (antibody, V domains shown, also called humanized 3D12 antibody h3D12.16; VH H3D12VH.2A / VL H3D12VK.1C) VH: EIQLVQSGAEVKKPGASVKVSCKASGYTFTNYGMNWVRQAPGQDLERMAWINTYTGESTYADDFKGRFTFTLDTSTSTAYMELSSLRSEDTAVYFCARGIYYYGSSYAMDYWGQGTTVTVSS VL: DIQMTQSPSSLSASVGDRVTITCRASQDISNCLNWYQQKPGKTPKLLIYYTSRLHSGVPSRFSGSGSGTDYTFTISSLQPEDIATYFCQQGKTLPYAFGQGTKLEIK | 1.36 | – | 2.09 | 0.00253 | 1.21e+06 | – | – | – | 0.01

Other lines, results leading:

IC50 for Antibody (PM), MRC-5 bioassay (IL-1α-stimulated production of IL-8) (recombinant human IL-1α [1]) [nM] | IC50 for Antibody (PM), MRC-5 bioassay (IL-1α-stimulated production of IL-8) (cynomolgus IL-1α [2]) [nM] | Kd (recombinant human IL-1α [3]) [nM] | koff (recombinant human IL-1α [3]) [s⁻¹] | kon (recombinant human IL-1α [3]) [M⁻¹ s⁻¹] | Kd (cynomolgus IL-1α [4]) [nM] | koff (cynomolgus IL-1α [4]) [s⁻¹] | kon (cynomolgus IL-1α [4]) [M⁻¹ s⁻¹] | EC50 (recombinant human IL-1α [5]) [nM] | Binder
1.88 | 0.0723 | – | – | – | – | – | – | – | murine anti-human IL-1α monoclonal antibody 3D12 (antibody, V domains shown) VH: QIQLVQSGPELKKPGETVKISCKASGYTFRNYGMNWVKQAPGKDLKRMAWINTYTGESTYADDFKGRFAFSLETSASTAYLQINNLKNEDTATYFCARGIYYYGSSYAMDYWGQGTSVTVSS VL: IQMTQTTSSLSASLGDRVTISCRASQDISNCLNWYQQKPDGTVKLLIYYTSRLHSGVPSRFSGSGSGTDYSLTISNLEQEDIATYFCQQGKTLPYAFGGGTKLEINR
0.006 | 0.0126 | 0.115 | 4.1e-05 | 355000 | 0.0578 | 2.25e-05 | 389000 | 0.007 | h3D12-362-10/372-15 (antibody, V domains shown) VH: EVQLVQSGAEVKKPGVSVKVSCKASGYTFTTYGMHWVRQAPGQGLEWMGWINTYTGESTYADDFQGRVTFTLDTSTSTAYMELSSLRSEDTAVYFCARGIYYYGSSYAMNYWGQGTTVTVSS VL: DIQMTQSPSSLSASVGDRVTITCRASQDISNMLNWYQQKPGKTPKLLIYYTSRLYPGVPSRFSGSGSGTDYTFTISSLQPEDIATYFCQQGKTLPYAFGQGTKLEIK
0.0006 | 0.00098 | 0.0324 | 3.75e-05 | 1.16e+06 | 0.00894 | 1.2e-05 | 1.37e+06 | 0.0692 | h3D12.r10 (antibody, V domains shown) VH: EIQLVQSGAEVKKPGASVKVSCKASGYTFAHYGMNWVRQAPGQGLEWMGWINTYTGQSTYADDFKGRFTFTLDTSTSTAYMELSSLRSEDTAVYYCARGIYYFGSNYAMDYWGQGTTVTVSS VL: DIQMTQSPSSLSASVGDRVTITCRASQDISNMLNWYQQKPGKTPKLLIYYTSRLRSGVPSRFSGSGSGTDYTFTISSLQPEDIATYFCQQGKKPPYTFGQGTKLEIK
0.0014 | 0.0006 | 0.0281 | 2.54e-05 | 896000 | 0.0394 | 3.82e-05 | 970000 | 0.114 | h3D12.r37 (antibody, V domains shown) VH: EIQLVQSGAEVKKPGASVKVSCKASGYTFKYYGMNWVRQAPGQGLERMGWINTYTGESRYADDFKGRVTFTLDTSTSTAYMELSSLRSEDTAVYYCARDIYYFGSDYAMDYWGQGTTVTVSS VL: DIQMTQSPSSLSASVGDRVTITCRASQDISNRLNWYQQKPGKAPKLLIYYASRLKPGVPSRFSGSGSGTDYTFTISSLQPEDIATYFCQQGNTPPYTFGQGTKLEIK
